# US20260184766A1 (priority 2022, published 2026)
# Test system: SARS CoV-2 "South African" B.1.351 variant Spike protein
# Conditions: not given
row,Sequence,"stability conferred to the knob sequence by N- and C-terminal residues, in words"
1,GMTCPDGYEHTCGCIGGCGCKRSACIGALCCQASLGGWLSDRS [G3-Z],improved stability
2,LVTCPDGYEHTCGCIGGCGCKRSACIGALCCQASLGGWLSDIP [G3-G],improved stability
3,DYTCPDGYEHTCGCIGGCGCKRSACIGALCCQASLGGWLSDMP [G3-C],improved stability
4,ISTCPDGYEHTCGCIGGCGCKRSACIGALCCQASLGGWLSDTV [2G3 knob ISTV],improved stability
5,SVTCPDGYEHTCGCIGGCGCKRSACIGALCCQASLGGWLSDYI [G3-E],improved stability
6,HWTCPDGYEHTCGCIGGCGCKRSACIGALCCQASLGGWLSDSF [2G3 knob HWSF],improved stability

# Test system: pseudotyped virus carrying B.1.351 or "SA" variant (beta lineage) spike
# Assay type: cell-based, SARS-CoV-2
# Conditions: read-out: Virus Neutralization Pseudovirus (nM) Beta
row,Sequence,EC50 [nM]
1,ISTCPDGYEHTCGCIGGCGCKRSACIGALCCQASLGGWLSDTV [2G3 knob ISTV],20.9 ± 7.95
2,HWTCPDGYEHTCGCIGGCGCKRSACIGALCCQASLGGWLSDSF [2G3 knob HWSF],7.82 ± 1.59
3,TCPDGYEHTCGCIGGCGCKRSACIGALCCQASLGGWLSD [2G3 Knob],15.7 ± 2.61
